Assay results as given in patent US20050282743A1, “Molecular interactions in cells” (Arbor Vita Corporation, priority 2001, published 2005).

Assays:
[1] = target: GST-KIAA1634 PDZ domain 1 (Homo sapiens (Human)), Q5TCQ9; assay: G assay titration, PDZ 1 ug/ml
[2] = target: T1, GST-Atrophin-1 Interacting Protein PDZ domain 1 (Rattus norvegicus (Rat)), O88382; assay: G assay titration, PDZ 5 ug/ml
[3] = target: T2, GST-Shank 1 PDZ domain 1 (Homo sapiens (Human)), Q9UPX8; assay: G assay titration, PDZ 5 ug/ml
T2 chain: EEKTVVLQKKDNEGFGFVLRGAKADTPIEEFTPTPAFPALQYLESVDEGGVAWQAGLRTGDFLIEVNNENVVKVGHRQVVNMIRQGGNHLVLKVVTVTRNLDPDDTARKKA

[4] = target: T3, GST-NOS1 PDZ domain 1 (Homo sapiens (Human)), P29475; assay: G' assay; conditions: remark: other sources report otherwise; further: key of the grades not given here
T3 chain: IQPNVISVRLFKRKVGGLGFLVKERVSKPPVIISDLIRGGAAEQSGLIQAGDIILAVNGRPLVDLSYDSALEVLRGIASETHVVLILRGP

[5] = target: T4, GST-Shank 3 PDZ domain 1 (human (hypothetical, computer cloned)), Q9BYB0; assay: G' assay; further: key of the grades not given here
T4 chain: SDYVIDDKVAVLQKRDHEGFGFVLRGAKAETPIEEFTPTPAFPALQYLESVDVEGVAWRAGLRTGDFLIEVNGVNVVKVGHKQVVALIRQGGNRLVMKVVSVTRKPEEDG

[6] = target: T5, GST-FLJ 10324 PDZ domain 1 [GST: P08515]; assay: G' assay; further: key of the grades not given here
T5 chain: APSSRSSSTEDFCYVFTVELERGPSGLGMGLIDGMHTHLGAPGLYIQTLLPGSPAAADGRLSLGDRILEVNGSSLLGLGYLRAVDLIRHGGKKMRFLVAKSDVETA

[7] = target: GST-DLG1 PDZ domains 1, 2 (Homo sapiens), Q12959; assay: G' assay; further: key of the grades not given here
[8] = target: T6, GST-EZRIN Binding Protein 50 PDZ domain 1 (Homo sapiens (Human)), O14745; assay: G' assay; further: key of the grades not given here
T6 chain: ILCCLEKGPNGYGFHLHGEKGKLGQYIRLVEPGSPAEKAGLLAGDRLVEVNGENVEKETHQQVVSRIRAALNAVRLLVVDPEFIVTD

[9] = target: T7, GST-NeDLG PDZ domain 3 (Mus musculus (Mouse)), P70175; assay: G' assay; further: key of the grades not given here
T7 chain: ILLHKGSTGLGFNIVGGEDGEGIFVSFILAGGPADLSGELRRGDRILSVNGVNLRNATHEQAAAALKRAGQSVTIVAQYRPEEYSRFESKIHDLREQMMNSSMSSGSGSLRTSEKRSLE

[10] = target: GST-PSD95 PDZ domains 1, 2, 3 (Homo sapiens), P78352; assay: G' assay; further: key of the grades not given here
[11] = target: T8, GST-PTPL1 PDZ domain 4 (Homo sapiens (Human)), Q12923; assay: G' assay; further: key of the grades not given here
T8 chain: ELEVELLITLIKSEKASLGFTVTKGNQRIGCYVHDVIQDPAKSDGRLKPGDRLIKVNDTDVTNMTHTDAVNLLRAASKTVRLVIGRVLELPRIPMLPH

[12] = target: T1, GST-Atrophin-1 Interacting Protein PDZ …; assay: G' assay; further: key of the grades not given here
[13] = target: T9, GST-EZRIN Binding Protein 50 PDZ domain 2 (Homo sapiens (Human)), O14745; assay: G' assay; further: key of the grades not given here
T9 chain: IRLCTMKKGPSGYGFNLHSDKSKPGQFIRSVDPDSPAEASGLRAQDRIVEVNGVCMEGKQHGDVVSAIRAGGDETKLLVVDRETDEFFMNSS

[14] = target: T10, GST-NeDLG PDZ domains 1, 2, Q92796; assay: G' assay; further: key of the grades not given here
T10 chain: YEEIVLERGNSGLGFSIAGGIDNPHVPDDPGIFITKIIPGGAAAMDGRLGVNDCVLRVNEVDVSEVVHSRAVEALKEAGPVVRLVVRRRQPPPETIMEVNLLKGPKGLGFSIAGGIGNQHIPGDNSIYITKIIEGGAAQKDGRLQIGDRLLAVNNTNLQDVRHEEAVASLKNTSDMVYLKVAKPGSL

[15] = target: T11, GST-KIAA0807(S) PDZ domain 1 (Homo sapiens (Human)), Q6P0Q8; assay: G' assay; further: key of the grades not given here
T11 chain: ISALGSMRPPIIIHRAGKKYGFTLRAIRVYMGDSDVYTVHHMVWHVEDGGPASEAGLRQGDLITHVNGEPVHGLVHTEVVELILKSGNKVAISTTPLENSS

[16] = target: GST-KIAA1634 PDZ domain 1 (Homo sapiens (Human)), Q5TCQ9; assay: G' assay; further: key of the grades not given here
[17] = target: T2, GST-Shank 1 PDZ domain 1 (Homo sapiens …); assay: G' assay; further: key of the grades not given here
[18] = target: T12, GST-MINT1 PDZ domains 1, 2, Q02410; assay: G' assay; further: key of the grades not given here
T12 chain: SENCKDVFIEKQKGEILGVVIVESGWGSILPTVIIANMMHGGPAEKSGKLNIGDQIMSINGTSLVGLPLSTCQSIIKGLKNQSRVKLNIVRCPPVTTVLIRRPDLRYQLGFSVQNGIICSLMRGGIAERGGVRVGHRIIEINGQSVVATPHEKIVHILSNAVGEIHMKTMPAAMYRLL

[19] = target: GST-KIAA807 [GST: P08515]; assay: G' assay; further: key of the grades not given here
[20] = target: T13, GST-ZO-1 PDZ domain 1 (Rattus norvegicus (Rat)), A0A0G2; assay: G' assay; further: key of the grades not given here
T13 chain: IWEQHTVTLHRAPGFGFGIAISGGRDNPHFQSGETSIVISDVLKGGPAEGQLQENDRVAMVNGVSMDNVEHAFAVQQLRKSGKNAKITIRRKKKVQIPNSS

[21] = target: T14, GST-TIP1 PDZ domain 1 (Table 9 insert) (Homo sapiens (Human)), O14907; assay: G' assay; further: key of the grades not given here
T14 chain: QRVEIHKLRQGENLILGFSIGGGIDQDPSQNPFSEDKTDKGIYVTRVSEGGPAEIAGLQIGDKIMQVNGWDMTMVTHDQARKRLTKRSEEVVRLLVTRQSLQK

[22] = target: T15, GST-INADL PDZ domain 8 (Homo sapiens (Human)), Q8NI35; assay: G' assay; further: key of the grades not given here
T15 chain: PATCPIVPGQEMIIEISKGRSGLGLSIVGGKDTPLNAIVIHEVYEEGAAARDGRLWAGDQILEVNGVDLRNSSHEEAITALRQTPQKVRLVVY

[23] = target: T16, GST-PTPL1 PDZ domain 2 (Homo sapiens (Human)), Q12923; assay: G' assay; further: key of the grades not given here
T16 chain: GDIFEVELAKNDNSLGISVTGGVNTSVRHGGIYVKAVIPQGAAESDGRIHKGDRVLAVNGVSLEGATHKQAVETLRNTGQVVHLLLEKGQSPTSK

[24] = target: T17, GST-KIAA1634 PDZ domain 2 (Homo sapiens (Human)), Q5TCQ9; assay: G' assay; further: key of the grades not given here
T17 chain: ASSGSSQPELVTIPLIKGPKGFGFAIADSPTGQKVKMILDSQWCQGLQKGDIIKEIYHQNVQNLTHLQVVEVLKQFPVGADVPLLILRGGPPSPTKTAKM

[25] = target: T11, GST-KIAA0807(S) PDZ domain 1 (Homo …); assay: G assay titration, PDZ 0.5 ug/ml
[26] = target: T16, GST-PTPL1 PDZ domain 2 (Homo sapiens …); assay: G assay titration, PDZ 1 ug/ml
[27] = target: T18, GST-AIPC PDZ domain 1 (Homo sapiens (Human)), O15018; assay: G' assay; further: key of the grades not given here
T18 chain: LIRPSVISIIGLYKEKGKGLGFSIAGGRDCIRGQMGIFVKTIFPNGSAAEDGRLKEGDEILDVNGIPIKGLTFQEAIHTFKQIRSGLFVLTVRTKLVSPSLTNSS

[28] = target: T19, GST-Syntrophin gamma 1 PDZ domain 1 (Homo sapiens (Human)), Q9NSN8; assay: G' assay; further: key of the grades not given here
T19 chain: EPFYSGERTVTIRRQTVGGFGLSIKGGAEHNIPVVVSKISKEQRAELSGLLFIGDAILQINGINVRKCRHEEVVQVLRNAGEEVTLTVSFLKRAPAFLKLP

[29] = target: T20, GST-FLJ00011 PDZ domain 1 (Homo sapiens (Human)), Q9H5P4; assay: G' assay; further: key of the grades not given here
T20 chain: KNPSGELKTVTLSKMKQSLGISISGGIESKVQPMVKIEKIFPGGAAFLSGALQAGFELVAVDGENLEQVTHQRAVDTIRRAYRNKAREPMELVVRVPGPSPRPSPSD

[30] = target: T21, GST-MUPP1 PDZ domain 13 (Homo sapiens (Human)), O75970; assay: G' assay; further: key of the grades not given here
T21 chain: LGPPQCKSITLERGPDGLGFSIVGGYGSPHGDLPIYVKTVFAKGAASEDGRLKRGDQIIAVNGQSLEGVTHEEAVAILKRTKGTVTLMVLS

[31] = target: T22, GST-GRIP 1 PDZ domain 3 (Homo sapiens (Human)), Q9Y3R0; assay: G' assay; further: key of the grades not given here
T22 chain: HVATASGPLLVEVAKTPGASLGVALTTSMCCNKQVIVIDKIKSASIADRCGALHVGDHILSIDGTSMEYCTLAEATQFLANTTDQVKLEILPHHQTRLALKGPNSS

[32] = target: T23, GST-HEMBA 1003117 PDZ domain 1 (Homo sapiens (Human)), Q96JH8; assay: G' assay; further: key of the grades not given here
T23 chain: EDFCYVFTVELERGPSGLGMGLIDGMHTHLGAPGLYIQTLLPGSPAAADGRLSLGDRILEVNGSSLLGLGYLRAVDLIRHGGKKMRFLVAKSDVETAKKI

[33] = target: GST-BAI-1 Associated Protein PDZ domain 3 (Homo sapiens (Human)), Q96QZ7; assay: G' assay; further: key of the grades not given here
[34] = target: GST-PIST PDZ domain 1 (Mus musculus (Mouse)), Q8BH60; assay: G' assay; further: key of the grades not given here
[35] = target: T24, GST-MINT1 PDZ domain 2 (Mus musculus (Mouse)), B2RUJ5; assay: G' assay; further: key of the grades not given here
T24 chain: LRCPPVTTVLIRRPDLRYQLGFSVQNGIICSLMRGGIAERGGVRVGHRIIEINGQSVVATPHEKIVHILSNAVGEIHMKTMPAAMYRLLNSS

[36] = target: GST-Atrophin-1 Interacting Protein PDZ domain 5 (Rattus norvegicus (Rat)), O88382; assay: G' assay; further: key of the grades not given here
[37] = target: GST-TAX IP2 PDZ domain 1 [GST: P08515]; assay: G assay titration, PDZ 1 ug/ml
[38] = target: GST-TAX IP2 PDZ domain 1 [GST: P08515]; assay: G' assay

GST-KIAA807 [GST: P08515], sequence (P08515 whole entry, the tested form may be a part): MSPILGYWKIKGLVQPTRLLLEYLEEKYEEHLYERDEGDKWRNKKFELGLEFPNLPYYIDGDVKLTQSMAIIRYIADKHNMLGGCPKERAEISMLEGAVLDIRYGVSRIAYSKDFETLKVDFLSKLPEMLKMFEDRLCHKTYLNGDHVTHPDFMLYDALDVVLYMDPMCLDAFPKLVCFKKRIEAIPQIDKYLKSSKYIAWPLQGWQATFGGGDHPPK
GST-TAX IP2 PDZ domain 1 [GST: P08515], sequence (P08515 whole entry, the tested form may be a part): as above
T1 sequence (O88382 408-511): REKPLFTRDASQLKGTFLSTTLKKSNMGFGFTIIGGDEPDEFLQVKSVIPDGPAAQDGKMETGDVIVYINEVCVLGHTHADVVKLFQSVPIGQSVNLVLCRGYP
GST-KIAA1634 PDZ domain 1 (Homo sapiens (Human)), Q5TCQ9, sequence (Q5TCQ9 401-502): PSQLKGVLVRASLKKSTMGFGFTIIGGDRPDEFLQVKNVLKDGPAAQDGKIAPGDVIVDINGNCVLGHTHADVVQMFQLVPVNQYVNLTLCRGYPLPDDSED
GST-BAI-1 Associated Protein PDZ domain 3 (Homo sapiens (Human)), Q96QZ7, sequence (Q96QZ7 other isoform, or with tags, fused parts or gaps): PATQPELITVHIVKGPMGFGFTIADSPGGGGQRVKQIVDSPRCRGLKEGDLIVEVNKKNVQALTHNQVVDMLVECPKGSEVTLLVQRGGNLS
GST-Atrophin-1 Interacting Protein PDZ domain 5 (Rattus norvegicus (Rat)), O88382, sequence (O88382 1128-1225): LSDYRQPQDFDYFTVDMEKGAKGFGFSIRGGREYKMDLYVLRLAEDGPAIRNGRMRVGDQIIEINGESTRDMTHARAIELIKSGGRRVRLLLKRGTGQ
GST-PSD95 PDZ domains 1, 2, 3 (Homo sapiens), P78352, sequence (P78352 62-395): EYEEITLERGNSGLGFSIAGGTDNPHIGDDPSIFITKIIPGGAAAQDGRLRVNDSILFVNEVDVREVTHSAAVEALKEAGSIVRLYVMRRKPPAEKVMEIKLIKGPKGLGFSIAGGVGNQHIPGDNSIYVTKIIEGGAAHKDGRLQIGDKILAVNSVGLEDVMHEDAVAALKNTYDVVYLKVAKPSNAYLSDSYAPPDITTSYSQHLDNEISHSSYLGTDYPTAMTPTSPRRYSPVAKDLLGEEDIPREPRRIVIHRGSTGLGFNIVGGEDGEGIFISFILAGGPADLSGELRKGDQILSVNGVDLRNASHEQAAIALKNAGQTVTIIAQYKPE

B1: Neuroligin (peptide)
peptide: TFAAGFNSTGLPHSTTRV
modifications: not checked
Q: Which Kd [1] does the source give for B1 here?
A: 100 nM

Q: And the Kd [2]?
A: 250 nM

Q: What about the Kd [3] of the same binder?
A: 300 nM

Q: And the Classification [4]?
A: 1 A450 class

Q: And the Classification [5]?
A: 3 A450 class

Q: What about the Classification [6] of the same binder?
A: 1 A450 class

Q: And the Classification [7]?
A: 2 A450 class

Q: What about the Classification [8] of the same binder?
A: 2 A450 class

Q: And the Classification [9]?
A: 1 A450 class

Q: What about the Classification [10] of the same binder?
A: 2 A450 class

Q: And the Classification [11]?
A: 1 A450 class

Q: What about the Classification [12] of the same binder?
A: 2 A450 class

Q: What about the Classification [13] of the same binder?
A: 1 A450 class

Q: And the Classification [14]?
A: 1 A450 class

Q: What about the Classification [15] of the same binder?
A: 3 A450 class

Q: What about the Classification [16] of the same binder?
A: 4 A450 class

Q: What about the Classification [17] of the same binder?
A: 2 A450 class

Q: What about the Classification [18] of the same binder?
A: 1 A450 class

Q: What about the Classification [19] of the same binder?
A: 3 A450 class

Q: What about the Classification [20] of the same binder?
A: 1 A450 class

Q: What about the Classification [21] of the same binder?
A: 1 A450 class

Q: And the Classification [22]?
A: 1 A450 class

Q: What about the Classification [23] of the same binder?
A: 1 A450 class

Q: What about the Classification [24] of the same binder?
A: 2 A450 class

B2: PTEN (peptide)
peptide: DSDPENEPFDEDQHTQITKV
modifications: not checked
Q: For B2, which Kd [25] is on record?
A: 300 nM

Q: And the Kd [26]?
A: 300 nM

Q: And the Kd [3]?
A: 1500 nM

Q: What about the Classification [27] of the same binder?
A: 1 A450 class

Q: And the Classification [6]?
A: 1 A450 class

Q: And the Classification [28]?
A: 1 A450 class

Q: What about the Classification [29] of the same binder?
A: 3 A450 class

Q: And the Classification [30]?
A: 5 A450 class

Q: What about the Classification [31] of the same binder?
A: 1 A450 class

Q: And the Classification [11]?
A: 1 A450 class

Q: And the Classification [32]?
A: 1 A450 class

Q: And the Classification [15]?
A: 5 A450 class

Q: And the Classification [17]?
A: 3 A450 class

Q: And the Classification [18]?
A: 1 A450 class

Q: And the Classification [33]?
A: 2 A450 class

Q: What about the Classification [34] of the same binder?
A: 1 A450 class

Q: And the Classification [35]?
A: 1 A450 class

Q: What about the Classification [19] of the same binder?
A: 5 A450 class

Q: What about the Classification [21] of the same binder?
A: 2 A450 class

Q: What about the Classification [36] of the same binder?
A: 2 A450 class

Q: And the Classification [22]?
A: 1 A450 class

Q: And the Classification [23]?
A: 4 A450 class

Q: What about the Classification [24] of the same binder?
A: 5 A450 class

B3: AKT1 (peptide)
peptide: VDSERRPHFPQFSYSASSTA
modifications: not checked
Q: Which results are given for B3?
A: Kd [37]: 2500 nM; Classification [38]: 4 A450 class; Classification [15]: 1 A450 class; Classification [19]: 1 A450 class
